This is an account of results in patent US20240059758A1 (CORAT THERAPEUTICS, published 2024).

To fix the notation:
B1: hybrid antibody VL STE90-C11 / VH YU536-D04 (antibody, V domains shown)
VH: QVQLVQSGGGLVQPGGSLRLSCAASGLTVSSNYMSWVRQAPGKGLEWVSVIYSGGSTYYADSVKGRFIISRDNSKNTLYLQMNSLRAEDTAVYYCARDLVVMGLDVWGKGTLVTVSS
VL: DIVMTQSPSFLSASVGDRVTITCRASQGISSYLAWYQQKPGKAPKLLIYAASTLQSGVPSRFSGSGSGTEFTLTISSLQPEDFATYYCQQLNSYPPFTFGPGTKVDIK
B2: hybrid antibody VL YU537-H11 / VH YU536-D04 (antibody, V domains shown)
VH: B1 VH
VL: QSVLTQPPSVSAAPGQKVTISCSGSSSNIGNNYVSWYQQLPGTAPKLLIYDTNKRPSGIPDRFSGSKSGTSATLGITGLQTGDEADYYCATWDSSLSVGVFGGGTKLTVL
B3: hybrid antibody VL STE90-C11 / VH YU537-H11 (antibody, V domains shown)
VH: EVQLLESGGGLIQPGGSLRLSCAASGLTVSSNYMSWVRQAPGKGLEWVSVIYSGGSTYYADSVKGRFTISRDNSKNALYLQMNSLRAEDTAVYYCARGESGSPYGMDVWGQGTLVTVSS
VL: B1 VL
B4: hybrid antibody VL YU536-D04 / VH STE90-C11 (antibody, V domains shown)
VH: QVQLVESGGGLVQPGGSLRLSCAASGLTVSSNYMSWVRQAPGKGLEWVSVIYSGGSTYYADSVKGRFTISRDDSKNTLYLQMNSLRAEDTAVYYCARDVADAFDIWGQGTMVTVSS
VL: DIQLTQSPSSLSASVGDRVTITCRASQGISSYLAWYQQKPGKAPKLLIYAASTLQSGVPSRFSGSGSGTDFTLTISSLQPEDFATYYCQQLNSYPITFGQGTKLEIK
B5: hybrid antibody VL YU537-H11 / VH STE90-C11 (antibody, V domains shown)
VH: B4 VH
VL: B2 VL
B6: hybrid antibody VL YU536-D04 / VH YU537-H11 (antibody, V domains shown)
VH: B3 VH
VL: B4 VL

One test has as its target receptor binding domain (RBD) of SARS-CoV-2 glycoprotein S, wild-type (SARS-CoV-2, UniProt P0DTC2 319-591). The experiment in a line: binding study, chain shuffling (example 19).
Turning to B1, the binding result is “binds”.
Regarding B2, the binding result is reported as “binds”.
In the case of B3, the binding result is “binds”.
As to B4, the binding result is “binds”.
Turning to B5, the binding result is listed as “binds”.
With B6, the binding result is “binds”.

The target in another test is T1, RBD mutant K417N (SARS-CoV-2, UniProt P0DTC2 319-591). Nature of the test: binding study, FIG. 46.
On to B1, for which the binding result is recorded as “binds”.

The target in another test is RBD mutant N501Y (SARS-CoV-2, UniProt P0DTC2 319-591). Nature of the test: binding study, chain shuffling.
On to B1, for which the binding result is recorded as “binds”.
B2: the binding result is reported as “binds”.
B3: the binding result is “binds”.
On the same count and under the same terms, the result for B4 reads “binds”; that for B5, “binds”.
On to B6, for which the binding result was “binds”.

In another test the target is T1, RBD mutant K417N. Nature of the test: binding study, chain shuffling.
Consider B2, for which the binding result was “binds”.
With B3, the binding result was “binds”.
On to B4, for which the binding result is “binds”.
On to B5, for which the binding result is on record as “binds”.
Consider B6, for which the binding result is given as “binds”.
